The values that follow come from patent publication US20210130436A1.

One experiment deals with CD28 (human) (UniProt P10747). Briefly: cell-based or functional assay.
The next experiment addresses PD-L1 (human) (UniProt Q9NZQ7). Briefly: cell-based or functional assay.

Chain of WT CD80 IgV-Fc (inert) (Fc fusion) (chain): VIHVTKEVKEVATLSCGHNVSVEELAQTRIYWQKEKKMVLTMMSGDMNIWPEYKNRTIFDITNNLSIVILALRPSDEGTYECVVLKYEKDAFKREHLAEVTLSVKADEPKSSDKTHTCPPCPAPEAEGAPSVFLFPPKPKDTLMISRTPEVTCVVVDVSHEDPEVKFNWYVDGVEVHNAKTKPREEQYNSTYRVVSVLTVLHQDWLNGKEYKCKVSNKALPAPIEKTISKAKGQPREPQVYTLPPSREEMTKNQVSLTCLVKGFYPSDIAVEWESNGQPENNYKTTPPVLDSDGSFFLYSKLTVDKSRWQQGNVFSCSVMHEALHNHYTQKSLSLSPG
Chain of PD-L1 (human) (Q9NZQ7 19-290): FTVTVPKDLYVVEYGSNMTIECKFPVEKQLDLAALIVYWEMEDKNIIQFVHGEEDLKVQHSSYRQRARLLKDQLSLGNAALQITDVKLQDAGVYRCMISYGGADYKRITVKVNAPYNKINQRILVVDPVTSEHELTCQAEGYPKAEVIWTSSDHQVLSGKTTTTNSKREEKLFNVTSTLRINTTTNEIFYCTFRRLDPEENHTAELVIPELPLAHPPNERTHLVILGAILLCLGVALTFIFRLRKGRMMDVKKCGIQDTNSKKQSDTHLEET

Regarding “variant CD80 IgV-Fc (effector) E35D/M47I (Fc fusion)”, in the experiment with CD28 (human), the IL-2 release, primary T cells; K562/OKT3 (No PD-L1); 1 nM was determined as 11100; the IL-2 release, primary T cells; K562/OKT3 (No PD-L1); 10 nM is 21600; the IL-2 release, primary T cells; K562/OKT3 (No PD-L1); 100 nM was 27200; the RLU, Jurkat/IL2 reporter; K562/OKT3 aAPC, FcR Dependent Cross-Linking (No PD-L1); 0.6 nM stood at 1780 RLU. For the same substance, in the experiment with CD28 (human), the RLU, Jurkat/IL2 reporter; K562/OKT3 aAPC, FcR Dependent Cross-Linking (No PD-L1); 1.9 nM was determined as 2130 RLU; the RLU, Jurkat/IL2 reporter; K562/OKT3 aAPC, FcR Dependent Cross-Linking (No PD-L1); 5.6 nM was 3650 RLU; the RLU, Jurkat/IL2 reporter; K562/OKT3 aAPC, FcR Dependent Cross-Linking (No PD-L1); 16.7 nM was 5790 RLU; the RLU, Jurkat/IL2 reporter; K562/OKT3 aAPC, FcR Dependent Cross-Linking (No PD-L1); 50 nM worked out at 7140 RLU. In the experiment with PD-L1 (human), the RLU, Jurkat/IL2 reporter; K562/OKT3/PD-L1 aAPC, Combination of FcR and/or PD-L1 Dependent Cross-Linking; 0.6 nM came to 2830 RLU; the RLU, Jurkat/IL2 reporter; K562/OKT3/PD-L1 aAPC, Combination of FcR and/or PD-L1 Dependent Cross-Linking; 1.9 nM is 3600 RLU; the RLU, Jurkat/IL2 reporter; K562/OKT3/PD-L1 aAPC, Combination of FcR and/or PD-L1 Dependent Cross-Linking; 5.6 nM is 4700 RLU; the RLU, Jurkat/IL2 reporter; K562/OKT3/PD-L1 aAPC, Combination of FcR and/or PD-L1 Dependent Cross-Linking; 16.7 nM worked out at 5320 RLU. Also, the RLU, Jurkat/IL2 reporter; K562/OKT3/PD-L1 aAPC, Combination of FcR and/or PD-L1 Dependent Cross-Linking; 50 nM with PD-L1 (human) is 5700 RLU.

WT CD80 IgV-Fc (inert) (Fc fusion): in the experiment with CD28 (human), the IL-2-luciferase RLU, Jurkat + CHO/OKT3/PD-L1 aAPC, 0.6 nM was determined as 458 RLU; the IL-2-luciferase RLU, Jurkat + CHO/OKT3/PD-L1 aAPC, 1.9 nM was 486 RLU; the IL-2-luciferase RLU, Jurkat + CHO/OKT3/PD-L1 aAPC, 5.6 nM stood at 511 RLU; the IL-2-luciferase RLU, Jurkat + CHO/OKT3/PD-L1 aAPC, 50 nM is 483 RLU. For the same substance, in the experiment with CD28 (human), the IL-2-luciferase RLU, Jurkat + CHO/OKT3 aAPC (no PD-L1), 5.6 nM was determined as 450 RLU; the IL-2-luciferase RLU, Jurkat + CHO/OKT3 aAPC (no PD-L1), 16.7 nM stood at 444 RLU; the IL-2-luciferase RLU, Jurkat + CHO/OKT3 aAPC (no PD-L1), 50 nM was 479 RLU; the IL-2-luciferase RLU, Jurkat + K562/OKT3/PD-L1 aAPC, 50 nM turned out to be 566 RLU. In the experiment with PD-L1 (human), the IL-2 release, primary T cells; K562/OKT3/PD-L1; 100 nM was found to be 52.

In the experiment with CD28 (human), “variant CD80 IgV-Fc (effector) A71D/L72V/E95K (Fc fusion)” gave an IL-2 release, primary T cells; K562/OKT3 (No PD-L1); 10 nM of 15100; an IL-2 release, primary T cells; K562/OKT3 (No PD-L1); 100 nM of 21300; an RLU, Jurkat/IL2 reporter; K562/OKT3 aAPC, FcR Dependent Cross-Linking (No PD-L1); 0.6 nM of 1820 RLU; an RLU, Jurkat/IL2 reporter; K562/OKT3 aAPC, FcR Dependent Cross-Linking (No PD-L1); 1.9 nM of 2590 RLU. In the experiment with CD28 (human), this substance showed an RLU, Jurkat/IL2 reporter; K562/OKT3 aAPC, FcR Dependent Cross-Linking (No PD-L1); 5.6 nM of 4130 RLU; an RLU, Jurkat/IL2 reporter; K562/OKT3 aAPC, FcR Dependent Cross-Linking (No PD-L1); 16.7 nM of 5550 RLU; an RLU, Jurkat/IL2 reporter; K562/OKT3 aAPC, FcR Dependent Cross-Linking (No PD-L1); 50 nM of 7110 RLU. Besides, in the experiment with PD-L1 (human), the RLU, Jurkat/IL2 reporter; K562/OKT3/PD-L1 aAPC, Combination of FcR and/or PD-L1 Dependent Cross-Linking; 1.9 nM amounted to 1540 RLU; the RLU, Jurkat/IL2 reporter; K562/OKT3/PD-L1 aAPC, Combination of FcR and/or PD-L1 Dependent Cross-Linking; 5.6 nM is 2520 RLU; the RLU, Jurkat/IL2 reporter; K562/OKT3/PD-L1 aAPC, Combination of FcR and/or PD-L1 Dependent Cross-Linking; 16.7 nM stood at 3640 RLU; the RLU, Jurkat/IL2 reporter; K562/OKT3/PD-L1 aAPC, Combination of FcR and/or PD-L1 Dependent Cross-Linking; 50 nM worked out at 4030 RLU.

For the substance “variant CD80 IgV-Fc (effector) E35D/M47I/L70M (Fc fusion)”, in the experiment with CD28 (human), the IL-2 release, primary T cells; K562/OKT3 (No PD-L1); 1 nM is 15700; the IL-2 release, primary T cells; K562/OKT3 (No PD-L1); 10 nM is 26000; the IL-2 release, primary T cells; K562/OKT3 (No PD-L1); 100 nM came to 25300; the RLU, Jurkat/IL2 reporter; K562/OKT3 aAPC, FcR Dependent Cross-Linking (No PD-L1); 0.6 nM turned out to be 1610 RLU. In the experiment with CD28 (human), this substance registered an RLU, Jurkat/IL2 reporter; K562/OKT3 aAPC, FcR Dependent Cross-Linking (No PD-L1); 1.9 nM of 2520 RLU; an RLU, Jurkat/IL2 reporter; K562/OKT3 aAPC, FcR Dependent Cross-Linking (No PD-L1); 5.6 nM of 4230 RLU; an RLU, Jurkat/IL2 reporter; K562/OKT3 aAPC, FcR Dependent Cross-Linking (No PD-L1); 16.7 nM of 5370 RLU; an RLU, Jurkat/IL2 reporter; K562/OKT3 aAPC, FcR Dependent Cross-Linking (No PD-L1); 50 nM of 5780 RLU. Besides, in the experiment with PD-L1 (human), the RLU, Jurkat/IL2 reporter; K562/OKT3/PD-L1 aAPC, Combination of FcR and/or PD-L1 Dependent Cross-Linking; 0.6 nM stood at 2240 RLU; the RLU, Jurkat/IL2 reporter; K562/OKT3/PD-L1 aAPC, Combination of FcR and/or PD-L1 Dependent Cross-Linking; 1.9 nM was found to be 2690 RLU; the RLU, Jurkat/IL2 reporter; K562/OKT3/PD-L1 aAPC, Combination of FcR and/or PD-L1 Dependent Cross-Linking; 5.6 nM stood at 3650 RLU; the RLU, Jurkat/IL2 reporter; K562/OKT3/PD-L1 aAPC, Combination of FcR and/or PD-L1 Dependent Cross-Linking; 16.7 nM came out at 3910 RLU. For the same substance, the RLU, Jurkat/IL2 reporter; K562/OKT3/PD-L1 aAPC, Combination of FcR and/or PD-L1 Dependent Cross-Linking; 50 nM with PD-L1 (human) is 3870 RLU.

Regarding “variant CD80 IgV-Fc (inert) E35D/M43L/L70M (Fc fusion)”, in the experiment with CD28 (human), the IL-2-luciferase RLU, Jurkat + CHO/OKT3/PD-L1 aAPC, 0.6 nM turned out to be 479 RLU; the IL-2-luciferase RLU, Jurkat + CHO/OKT3/PD-L1 aAPC, 1.9 nM was 525 RLU; the IL-2-luciferase RLU, Jurkat + CHO/OKT3/PD-L1 aAPC, 5.6 nM turned out to be 683 RLU; the IL-2-luciferase RLU, Jurkat + CHO/OKT3/PD-L1 aAPC, 16.7 nM worked out at 1070 RLU. For the same substance, in the experiment with CD28 (human), the IL-2-luciferase RLU, Jurkat + CHO/OKT3 aAPC (no PD-L1), 5.6 nM was 396 RLU; the IL-2-luciferase RLU, Jurkat + CHO/OKT3 aAPC (no PD-L1), 16.7 nM was determined as 439 RLU; the IL-2-luciferase RLU, Jurkat + CHO/OKT3 aAPC (no PD-L1), 50 nM stood at 515 RLU. This substance also showed an IL-2 release, primary T cells; K562/OKT3/PD-L1; 10 nM in the experiment with PD-L1 (human) of 52.

As for “variant CD80 IgV-Fc (inert) E35D (Fc fusion)”, in the experiment with CD28 (human), the IL-2-luciferase RLU, Jurkat + CHO/OKT3/PD-L1 aAPC, 0.6 nM came out at 456 RLU; the IL-2-luciferase RLU, Jurkat + CHO/OKT3/PD-L1 aAPC, 1.9 nM is 465 RLU; the IL-2-luciferase RLU, Jurkat + CHO/OKT3/PD-L1 aAPC, 5.6 nM amounted to 625 RLU; the IL-2-luciferase RLU, Jurkat + CHO/OKT3/PD-L1 aAPC, 16.7 nM was 995 RLU. In the experiment with CD28 (human), the IL-2-luciferase RLU, Jurkat + CHO/OKT3/PD-L1 aAPC, 50 nM was 1610 RLU; the IL-2-luciferase RLU, Jurkat + CHO/OKT3 aAPC (no PD-L1), 5.6 nM came out at 412 RLU; the IL-2-luciferase RLU, Jurkat + CHO/OKT3 aAPC (no PD-L1), 16.7 nM is 480 RLU; the IL-2-luciferase RLU, Jurkat + CHO/OKT3 aAPC (no PD-L1), 50 nM is 448 RLU. In the experiment with PD-L1 (human), this substance returned an IL-2 release, primary T cells; K562/OKT3/PD-L1; 10 nM of 210 and an IL-2 release, primary T cells; K562/OKT3/PD-L1; 100 nM of 2740.
